The data set concerns the molecule itself. In words: SEC.

B1: RIG-5 IG1 (purified, hexahistidine tag) (domain or fragment)
chain: GAPPTIQQPSMSSAVALLGQDVDFTCIVNDLGSHMVAFVKADSPPRLLSFDEKVFRRRNKYELKPRIGDLHNEWVLTIKNVQESDRGNYSCQINTEPITLSTGELDVKVP
modifications: one N-linked glycan per monomer
Regarding B1, the stoichiometry N (commonly the number of molecules, sites or subunits per partner or assembly) was 2.
